Test results as given in the supplement of paper PMC10567573.

B1: RSPH3 (parent)
chain: VDVQTELYLEEIADRIIEVDMECQ
B2: MTMR15 (parent)
chain: YVKAKKSIDKDEEFAGSSPQSSKS

Variants of: B1
Assay: protein stability index of a GFP-peptide fusion (GPS, HEK-293T) (PSI 1-6); higher = more stable
Conditions: c terminus: a fixed tail appended
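Further: lentivirally expressed fusions sorted by FACS into six bins by GFP to DsRed ratio, PSI derived from sequencing read proportions per bin multiplied by bin number.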

Compared with V19H, V19R is higher in protein stability index: 3.55 for the first, 4.23 for the second.

Compared with V19N, V19K is higher in protein stability index: 4.1 for the first, 4.5 for the second.

Going from V19T to V19P, the protein stability index rises from 3.95 to 4.3.

Going from V19L to V19S, the protein stability index rises from 1.59 to 4.1.

Compared with V19I, V19M is higher in protein stability index: 2.36 for the first, 2.79 for the second.

Going from V19W to V19Y, the protein stability index rises from 2.28 to 2.58.

Compared with V19Q, Q24G is lower in protein stability index: 3.76 for the first, 2.79 for the second.

Going from Q24F to Q24V, the protein stability index rises from 1.14 to 1.84.

Going from Q24P to Q24Y, the protein stability index falls from 3.33 to 2.69.

Going from Q24K to Q24M, the protein stability index falls from 2.12 to 1.59.

First: Q24E
Second: Q24D
The protein stability index of the first is lower: 2.31 for the first, 2.82 for the second.

First: Q24N
Second: Q24T
The protein stability index of the first is lower: 2.05 for the first, 3.69 for the second.

Going from Q24C to Q24H, the protein stability index rises from 2.32 to 2.52.

Going from Q24I to Q24W, the protein stability index falls from 2.32 to 1.5.

Going from Q24A to Q24R, the protein stability index rises from 1.95 to 2.52.

First: Q24L
Second: Q24S
The protein stability index of the first is lower: 1.33 for the first, 2.72 for the second.

First: M21K
Second: M21Y
The protein stability index of the first is higher: 2.27 for the first, 1.94 for the second.

Going from M21C to M21N, the protein stability index rises from 2.38 to 2.99.

First: M21H
Second: M21W
The protein stability index of the first is higher: 3.59 for the first, 1.76 for the second.

First: M21G
Second: M21A
The protein stability index of the first is higher: 4.38 for the first, 3.23 for the second.

Going from M21L to M21D, the protein stability index rises from 1.66 to 4.54.

Compared with M21I, M21V is higher in protein stability index: 1.91 for the first, 1.99 for the second.

First: M21Q
Second: M21P
The protein stability index of the first is lower: 2.49 for the first, 4.45 for the second.

Going from M21R to M21F, the protein stability index falls from 3.8 to 1.47.

Going from M21S to M21T, the protein stability index falls from 3.85 to 3.43.

Compared with M21E, E22N is lower in protein stability index: 3.85 for the first, 2.86 for the second.

Compared with E22P, E22D is lower in protein stability index: 2.88 for the first, 2.77 for the second.

Compared with E22H, E22A is lower in protein stability index: 2.06 for the first, 1.99 for the second.

Compared with E22F, E22G is higher in protein stability index: 1.9 for the first, 3.05 for the second.

Going from E22C to E22Q, the protein stability index rises from 1.89 to 2.01.

Going from E22I to E22V, the protein stability index falls from 2.81 to 1.57.

First: E22K
Second: E22R
The protein stability index of the first is higher: 2.27 for the first, 2.03 for the second.

Going from E22Y to E22M, the protein stability index rises from 2.82 to 2.83.

First: E22S
Second: E22T
The protein stability index of the first is higher: 2.22 for the first, 2.17 for the second.

First: E22L
Second: D20F
The protein stability index of the first is lower: 2.53 for the first, 3.1 for the second.

Going from D20Q to D20V, the protein stability index falls from 3.34 to 2.51.

Compared with D20H, D20L is higher in protein stability index: 2.46 for the first, 4.62 for the second.

Going from D20R to D20P, the protein stability index rises from 1.15 to 3.46.

First: D20E
Second: D20I
The protein stability index of the first is lower: 1.71 for the first, 3.01 for the second.

Compared with D20A, D20G is lower in protein stability index: 2.54 for the first, 1.85 for the second.

Going from D20Y to D20N, the protein stability index falls from 4.28 to 1.82.

First: D20S
Second: D20K
The protein stability index of the first is lower: 1.65 for the first, 2.24 for the second.

First: D20T
Second: C23R
The protein stability index of the first is lower: 3.29 for the first, 3.46 for the second.

Going from C23P to C23N, the protein stability index falls from 4.06 to 3.87.

Compared with C23F, C23L is higher in protein stability index: 2.07 for the first, 3.52 for the second.

Compared with C23V, C23S is lower in protein stability index: 5.09 for the first, 3.85 for the second.

Going from C23H to C23G, the protein stability index falls from 4.03 to 3.72.

Compared with C23W, C23M is higher in protein stability index: 1.88 for the first, 2.34 for the second.

First: C23I
Second: C23E
The protein stability index of the first is lower: 2.23 for the first, 4.22 for the second.

First: C23A
Second: C23K
The protein stability index of the first is lower: 3.46 for the first, 4.46 for the second.

Going from C23T to C23Y, the protein stability index falls from 3.68 to 2.71.

First: C23D
Second: C23Q
The protein stability index of the first is higher: 4.4 for the first, 4.31 for the second.

Variants of: B2
Assay: as above
Conditions: c terminus: a fixed tail appended

Compared with V2N, V2L is lower in protein stability index: 5.16 for the first, 4.84 for the second.

Compared with V2H, V2P is higher in protein stability index: 4.49 for the first, 4.76 for the second.

Compared with V2M, V2Q is higher in protein stability index: 4.91 for the first, 5.09 for the second.

Compared with V2W, V2F is higher in protein stability index: 4.5 for the first, 4.74 for the second.

Compared with V2R, V2D is higher in protein stability index: 5.42 for the first, 5.5 for the second.

First: V2A
Second: V2G
The protein stability index of the first is lower: 5.13 for the first, 5.2 for the second.

Going from V2Y to V2T, the protein stability index falls from 5.39 to 5.08.

First: V2C
Second: V2E
The protein stability index of the first is lower: 4.52 for the first, 5.56 for the second.

Going from V2I to V2K, the protein stability index rises from 4.23 to 5.26.

First: V2S
Second: A4H
The protein stability index of the first is higher: 5.38 for the first, 3.51 for the second.

Going from A4E to A4D, the protein stability index falls from 3.54 to 3.27.

First: A4F
Second: A4C
The protein stability index of the first is lower: 2.89 for the first, 2.97 for the second.

Going from A4G to K3P, the protein stability index falls from 3.42 to 2.04.

First: K3R
Second: K3A
The protein stability index of the first is lower: 2.4 for the first, 2.87 for the second.

Going from K3Q to K3G, the protein stability index falls from 3.31 to 2.27.

Compared with K3I, K3W is lower in protein stability index: 3.38 for the first, 3.1 for the second.

Compared with K3C, K3M is lower in protein stability index: 3.3 for the first, 3.28 for the second.

Going from K3D to K3E, the protein stability index falls from 3.96 to 3.48.

Compared with K3V, K3Y is lower in protein stability index: 3.85 for the first, 2.61 for the second.

Going from K3H to K3N, the protein stability index rises from 3.22 to 3.52.

Going from K3F to K3S, the protein stability index falls from 3.3 to 2.76.

Compared with K3T, K3L is higher in protein stability index: 2.84 for the first, 3.05 for the second.

Compared with Y1M, Y1R is higher in protein stability index: 5.01 for the first, 5.62 for the second.

First: Y1N
Second: Y1T
The protein stability index of the first is lower: 5.4 for the first, 5.69 for the second.

First: Y1P
Second: Y1H
The protein stability index of the first is higher: 5.19 for the first, 5.11 for the second.

Going from Y1F to Y1V, the protein stability index rises from 2.79 to 5.29.

Compared with Y1D, Y1Q is lower in protein stability index: 5.62 for the first, 5.48 for the second.

Going from Y1I to Y1W, the protein stability index falls from 5.52 to 4.66.

First: Y1E
Second: Y1A
The protein stability index of the first is higher: 5.82 for the first, 5.37 for the second.

First: Y1K
Second: Y1G
The protein stability index of the first is lower: 5.15 for the first, 5.7 for the second.

First: Y1L
Second: Y1C
The protein stability index of the first is lower: 5.14 for the first, 5.51 for the second.

In the case of Y1S, the protein stability index is reported as 5.49.
